Tests used:
[1] = biological target: IL-1 receptor (IL-1R) on cells (UniProt P14778); assay: cell-based or functional assay
[2] = biological target: CD36 on RAW 264.7 murine macrophage cells (murine) (UniProt Q08857); assay: cell-based or functional assay
[3] = biological target: recombinant soluble His-tagged CD36; assay: SPR; His-tagged soluble CD36 immobilized, peptide 100 nM to 30 µM, Langmuir isotherm fit
Sequence of recombinant soluble His-tagged CD36 (P16671 30-439): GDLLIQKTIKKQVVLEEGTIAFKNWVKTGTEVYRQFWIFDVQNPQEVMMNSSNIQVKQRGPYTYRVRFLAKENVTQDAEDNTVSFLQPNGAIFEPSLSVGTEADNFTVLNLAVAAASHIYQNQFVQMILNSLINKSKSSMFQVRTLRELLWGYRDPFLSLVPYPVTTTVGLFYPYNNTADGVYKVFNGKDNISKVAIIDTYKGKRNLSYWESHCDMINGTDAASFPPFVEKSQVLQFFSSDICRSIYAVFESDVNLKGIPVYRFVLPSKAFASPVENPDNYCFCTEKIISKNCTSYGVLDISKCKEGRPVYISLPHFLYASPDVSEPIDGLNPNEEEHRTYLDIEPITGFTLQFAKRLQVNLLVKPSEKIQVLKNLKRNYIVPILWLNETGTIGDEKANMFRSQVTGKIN

Sequence of CD36 on RAW 264.7 murine macrophage cells (murine) (Q08857 whole entry): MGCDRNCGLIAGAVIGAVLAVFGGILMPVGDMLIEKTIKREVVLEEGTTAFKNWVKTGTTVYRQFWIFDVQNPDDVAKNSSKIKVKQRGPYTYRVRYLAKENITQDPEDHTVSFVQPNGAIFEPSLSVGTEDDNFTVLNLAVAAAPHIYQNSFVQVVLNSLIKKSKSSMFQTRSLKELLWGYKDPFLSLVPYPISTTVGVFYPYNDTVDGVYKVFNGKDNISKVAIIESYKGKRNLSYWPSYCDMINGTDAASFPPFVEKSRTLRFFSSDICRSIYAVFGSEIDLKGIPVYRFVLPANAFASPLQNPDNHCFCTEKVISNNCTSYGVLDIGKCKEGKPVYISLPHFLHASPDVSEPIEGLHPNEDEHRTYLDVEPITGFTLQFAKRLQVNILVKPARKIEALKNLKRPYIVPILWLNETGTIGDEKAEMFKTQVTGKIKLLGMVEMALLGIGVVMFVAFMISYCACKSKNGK
Sequence of IL-1 receptor (IL-1R) on cells (P14778 18-569 limits assumed): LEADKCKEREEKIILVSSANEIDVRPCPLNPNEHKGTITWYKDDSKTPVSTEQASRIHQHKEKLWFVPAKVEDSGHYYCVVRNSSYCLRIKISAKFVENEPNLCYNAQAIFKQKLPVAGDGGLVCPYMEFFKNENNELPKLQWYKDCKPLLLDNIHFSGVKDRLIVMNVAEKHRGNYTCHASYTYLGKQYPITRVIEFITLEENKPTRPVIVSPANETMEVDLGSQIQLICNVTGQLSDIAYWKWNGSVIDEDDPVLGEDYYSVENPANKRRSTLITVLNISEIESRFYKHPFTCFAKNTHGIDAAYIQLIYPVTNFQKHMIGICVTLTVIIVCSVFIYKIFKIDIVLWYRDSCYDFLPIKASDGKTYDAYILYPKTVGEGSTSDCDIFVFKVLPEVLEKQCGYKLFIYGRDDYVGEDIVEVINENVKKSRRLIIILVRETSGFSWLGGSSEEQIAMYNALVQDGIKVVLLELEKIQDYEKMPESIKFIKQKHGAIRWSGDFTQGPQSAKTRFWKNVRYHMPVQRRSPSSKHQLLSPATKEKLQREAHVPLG

Row | Substance | IL-1β-induced human thymocyte (TF-1) proliferation [1] | decrease in NF-KB activation in HEK Blue cells (SEAP reporter, OD620) [1] | JNK-kinase cellular assay EC50 [2] | Kd [3] | ΔλSPR (nm) [3]
1 | [Nai^3]-101.10 (D-Arg-D-Tyr-Nai-D-Val-D-Glu-D-Leu-D-Ala-NH2) (peptide) | 77% | 65% | – | – | –
2 | Kineret (from UniProt P18510 26-177) (ligand) | – | 100% | – | – | –
3 | [N-Amino-4-benzylimidazolin-2-one^4]GHRP-6 (His-D-Trp-Ala-(N-amino-4-benzyl-imidazolin-2-one)-D-Phe-Lys-NH2), 31b (peptide) | – | – | > 10 µM | 11 µM | 1.6 nm
4 | [N-Amino-4-methylimidazolin-2-one^4]GHRP-6 (His-D-Trp-Ala-(N-amino-4-methyl-imidazolin-2-one)-D-Phe-Lys-NH2), RS-31a (peptide) | – | – | 0.0554 µM | 4.9 µM | 1.1 nm
5 | [azaTyr^4]GHRP-6 (His-D-Trp-Ala-AzaTyr-D-Phe-Lys-NH2) (peptide) | – | – | 0.214 µM | 5 µM | 1.8 nm
6 | [Nap^3]-101.10 (D-Arg-D-Tyr-Nap-D-Val-D-Glu-D-Leu-D-Ala-NH2) (peptide) | 41% | – | – | – | –
7 | [(R)-Agl^3]-101.10 (peptide) | 41% | – | – | – | –
8 | [Nad^3]-101.10 (D-Arg-D-Tyr-Nad-D-Val-D-Glu-D-Leu-D-Ala-NH2) (peptide) | 53% | – | – | – | –

Reference: patent US20140024606A1
